From patent US20090324700A1, “METHODS AND COMPOSITIONS FOR THE INHIBITION OF CATHEPSINS” (priority 2003, published 2009)

How the values were obtained:
human cathepsin G = target: T1, human cathepsin G (Homo sapiens, UniProt P08311); assay: Protease specificity of Spi2A: cathepsin G; format: biochemical; conditions: protease 20 nM, Spi2A 200 nM, 1 h at 37° C; FIG. 6B
T1 construct: purchased Calbiochem or Athens Research and Technology
T1 sequence (P08311 21-244): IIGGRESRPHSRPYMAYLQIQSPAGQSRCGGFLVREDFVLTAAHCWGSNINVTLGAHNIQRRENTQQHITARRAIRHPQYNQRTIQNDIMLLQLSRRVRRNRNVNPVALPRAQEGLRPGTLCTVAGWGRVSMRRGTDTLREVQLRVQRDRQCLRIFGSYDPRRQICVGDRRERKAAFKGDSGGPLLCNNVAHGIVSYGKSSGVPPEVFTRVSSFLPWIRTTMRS
Protocol: (§1) Protease specificity of Spi2A. RelA^−/− MEFs were transduced with retrovirus encoding Spi2A with a C-terminal 3×FLAG epitope tag and Spi2A-3×FLAG purified using a method described previously (Cooley et al., 1998). Briefly, cells (3×10^9) were lysed and Spi2A-3×FLAG (75 μg) purified by batch Q-Fast Flow ion-exchange chromatography (Pharmacia Biotech) after elution at 160-220 mM NaCl followed by anti-FLAG antibody columns, performed according to manufacturer's instructions (Sigma-Aldrich). Spi2A-3×FLAG was dialysed into PBS and stored as aliquots at −80° C. until needed.
(§2) Proteases were purchases from the manufacturers (Calbiochem or Athens Research and Technology) except granzymes A and B which were purified as described (Hanna et al., 1993) and cathespin V and K, which were purified as described (Bromme et al., 1999; Linnevers et al., 1997). Proteases (20 nM) were incubated in the appropriate assay buffer with Spi2A at 200 nM (at least 10-fold excess of inhibitor to maintain pseudo-first order conditions) for 1 h at 37° C. Control samples included only the enzyme, without the inhibitor. At the end of 1 h protease activity was assayed. […] Substrate hydrolysis was measured in a fluorescence microtiter plate reader (Spectramax Gemini XS, Molecular Devices). Percentage inhibition was calculated from the residual enzyme activity compared to no Spi2A controls. […]

cathepsin B = target: T2, cathepsin B (Homo sapiens, UniProt P07858); assay: Protease specificity of Spi2A: cathepsin B; format: biochemical; conditions: protease 20 nM, Spi2A 200 nM, 1 h at 37° C; FIG. 6B
T2 construct: purchased Calbiochem or Athens Research and Technology
Protocol: as §1, §2

human cathepsin V = target: T3, human cathepsin V (Homo sapiens, UniProt O60911); assay: Protease specificity of Spi2A: cathepsin V; format: biochemical; conditions: protease 20 nM, Spi2A 200 nM, 1 h at 37° C; FIG. 6B
T3 construct: made in house
T3 sequence (O60911 114-334): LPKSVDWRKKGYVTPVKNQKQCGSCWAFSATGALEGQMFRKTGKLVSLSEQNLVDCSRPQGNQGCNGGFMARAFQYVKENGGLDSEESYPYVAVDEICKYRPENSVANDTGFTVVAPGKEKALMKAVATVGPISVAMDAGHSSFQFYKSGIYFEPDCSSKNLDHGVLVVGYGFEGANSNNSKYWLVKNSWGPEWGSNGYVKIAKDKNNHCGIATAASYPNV
Protocol: as §1, §2

caspase 3 = target: T4, caspase 3 (Homo sapiens, UniProt P42574); assay: Protease specificity of Spi2A: caspase 3; format: biochemical; conditions: FIG. 6B
T4 construct: purchased Calbiochem or Athens Research and Technology
T4 sequence (P42574 29-175 limits assumed): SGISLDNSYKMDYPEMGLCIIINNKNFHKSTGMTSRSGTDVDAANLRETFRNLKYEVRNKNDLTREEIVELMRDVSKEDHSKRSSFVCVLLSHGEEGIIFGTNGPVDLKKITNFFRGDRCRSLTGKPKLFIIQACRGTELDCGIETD
T4 sequence (P42574 176-277 limits assumed): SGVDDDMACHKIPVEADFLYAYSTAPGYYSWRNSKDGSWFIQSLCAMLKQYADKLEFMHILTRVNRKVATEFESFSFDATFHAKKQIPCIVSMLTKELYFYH
Protocol: as §1, §2

RelA^−/− MEFs [1] = assay: Survival assay, TNF-α and CHX, RelA^−/− MEFs; format: cell-based, mouse
RelA^−/− MEFs [2] = assay: ROS production (dihydroethidium), RelA^−/− MEFs; format: cell-based, mouse; conditions: TNF-α 0.2 ng/ml, CHX 0.1 μg/ml; FIG. 5D
Protocol: Death effector assays. Death effector pathways were induced in […] MEFs by treatment TNF-α (0.2 ng/ml) and CHX (0.1 μg/ml). Assays for executioner proteases (caspases and cathepsin B) were performed on crude cytoplasmic extracts (Stegh et al., 2000). Briefly, MEFs (10^6) were lysed in 10 mM Tris-Cl, pH 7.5, 100 mM NaCl, 1 mM EDTA, 0.01% Triton X-100 (50 μl) for 30 min on ice then centrifuged at 15,000 g for 30 min at 4° C. and the supernatant recovered. Protein concentration was determined by Lowry assay (DC-protein assay kit, Biorad). Western immunoblots were performed on crude cytosolic extracts (50 μg per lane) using standard protocols and probed with the following antibodies: goat anti-mouse Bid antiserum (1 μg/ml; R&D systems), rabbit anti-human caspase 9 antiserum (2 μg/ml; Cell Signaling Technology), rabbit anti-human caspase 3 antiserum (2 μg/ml; Cell Signaling Technology), mouse anti-human caspase 8 monoclonal antibody clone 12F5 (1 μg/ml; Axxora). […]
Mitochondrial membrane potential and ROS production were measured using the fluorescent dyes JC-1 (3 μg/ml) and dihydroethidium (HE) (5 μM)(Molecular Probes) respectively, and flow cytometry according to the manufacturer's instructions.

NF-κB = NF-κB activation, EMSA, RelA^−/− MEFs; format: cell-based, mouse; conditions: TNF-α stimulation
Protocol: The possibility that Spi2A protects from TNF-α-induced apoptosis by directly activating NF-κB was examined. Therefore, using electrophoretic mobility shift assays (EMSAs), studies were conducted to determine whether Spi2A itself promotes NF-κB activation in nuclei from Rel A^−/− MEFs transduced with Spi2A or whether the abrogation of Spi2A mRNA up-regulation by Spi2A antisense message inhibits NF-κB activation in Rel A^+/+ MEFs. […] In Rel A^+/+ MEFs, super-shift analysis confirmed the induction of p50/Rel A by TNF-α. […] Thus, the anti-apoptotic activity of Spi2A is unlikely to be mediated through the modulation of NF-κB activation.

B1: Spi2A: murine Spi2A polypeptide, SEQ ID NO:2; purified as C-terminal 3×FLAG protein or expressed from MIGR1 retrovirus in cells and bone-marrow chimeras (protein, listed as Mus musculus)
chain: MAGVSPAVFGCPDVTLGRNTAVREVQENVTSVDSLTLVSSNTDFAFSLYRKLVLKNPDENVVFSPFSICTALALLSLGAKSNTLKEILEGLKFNLTETPEPDIHQGFRYLLDLLSQPGNQVQISTGSALFIEKHLQILAEFKEKARALYQAEAFTADFQQPLKATKLINDYVSNHTQGKIKELISGLKESTLMVLVNYIYFKGKWKNPFDPNDTFKSEFYLDEKRSVIVSMMKTGYLTTPYFRDEELSCTVVELKYTGNASAMFILPDQGRMQQVEASLQPETLRKWKNSLKPRMIHELRLPKFSISTDYSLEHILPELGIREVFSTHADLSAITGTKDLRVSQVVHKAVLDVAEKGTEAAAATGMAGVGCCAVFDFLEIFFNRPFLMIISDTKAHIALFMAKVTNPERSTNFPNGEGASSQRLESKRLCFGDPLCLIGQ
modifications: C-terminal 3xFLAG tag
notes: purified as C-terminal 3×FLAG protein or expressed from MIGR1 retrovirus in cells and bone-marrow chimeras
Inhibition of protease by Spi2A (percentage inhibition) (human cathepsin G): inhibited | Inhibition of protease by Spi2A (percentage inhibition) (cathepsin B): extended to all of the lysosomal, papain-like proteases that were examined | Inhibition of protease by Spi2A (percentage inhibition) (human cathepsin V): extended to all of the lysosomal, papain-like proteases that were examined | Inhibition of protease by Spi2A (percentage inhibition) (caspase 3): did not extend to any of the caspases tested | Protection at low concentrations of TNF-α (RelA^−/− MEFs [1]; 0.5 ng/ml TNF-α, FIG. 2B): virtually complete | Percentage survival after TNF-α and CHX, retrovirally transduced cells vs GFP (RelA^−/− MEFs [1]; 16 h, CHX 0.1 μg/ml, FIG. 1B, 2B): markedly improved survival | Protection at high concentrations of TNF-α (RelA^−/− MEFs [1]; after 16 hours, FIG. 2B): dramatic | production of reactive oxygen species (ROS) (RelA^−/− MEFs [2]): suppressed | Expression of NF-κB complexes (p50/p50, p50/Rel) in nuclei (NF-κB): did not affect
